Measurements as given in patent publication US20180244758A1 (MAPP BIOPHARMACEUTICAL, published 2018).
Numbering of substitutions follows the chain as printed. Names and notes keep the numbering of the source.

T1: RESTV GP on rVSV particles (Reston virus (RESTV), UniProt Q66799 34-677)
T1 sequence: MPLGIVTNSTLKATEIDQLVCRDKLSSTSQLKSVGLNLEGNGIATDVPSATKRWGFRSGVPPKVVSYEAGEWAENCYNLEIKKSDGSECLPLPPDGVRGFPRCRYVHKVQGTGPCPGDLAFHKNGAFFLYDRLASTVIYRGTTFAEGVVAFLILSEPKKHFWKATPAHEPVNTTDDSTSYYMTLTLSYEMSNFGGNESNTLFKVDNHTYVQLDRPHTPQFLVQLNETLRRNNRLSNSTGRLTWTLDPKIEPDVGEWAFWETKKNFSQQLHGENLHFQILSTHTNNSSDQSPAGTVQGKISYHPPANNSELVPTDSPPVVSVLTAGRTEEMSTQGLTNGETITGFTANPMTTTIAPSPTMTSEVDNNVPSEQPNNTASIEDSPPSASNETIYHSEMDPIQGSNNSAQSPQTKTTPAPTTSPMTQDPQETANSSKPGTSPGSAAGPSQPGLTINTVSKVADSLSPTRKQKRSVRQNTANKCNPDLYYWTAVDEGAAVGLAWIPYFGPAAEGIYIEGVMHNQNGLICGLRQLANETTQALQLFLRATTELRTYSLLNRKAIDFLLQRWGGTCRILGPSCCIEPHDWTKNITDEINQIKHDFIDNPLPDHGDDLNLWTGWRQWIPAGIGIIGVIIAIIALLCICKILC

T2: EBOV GP on rVSV particles (Ebola virus (EBOV), UniProt Q05320 33-676)
T2 sequence: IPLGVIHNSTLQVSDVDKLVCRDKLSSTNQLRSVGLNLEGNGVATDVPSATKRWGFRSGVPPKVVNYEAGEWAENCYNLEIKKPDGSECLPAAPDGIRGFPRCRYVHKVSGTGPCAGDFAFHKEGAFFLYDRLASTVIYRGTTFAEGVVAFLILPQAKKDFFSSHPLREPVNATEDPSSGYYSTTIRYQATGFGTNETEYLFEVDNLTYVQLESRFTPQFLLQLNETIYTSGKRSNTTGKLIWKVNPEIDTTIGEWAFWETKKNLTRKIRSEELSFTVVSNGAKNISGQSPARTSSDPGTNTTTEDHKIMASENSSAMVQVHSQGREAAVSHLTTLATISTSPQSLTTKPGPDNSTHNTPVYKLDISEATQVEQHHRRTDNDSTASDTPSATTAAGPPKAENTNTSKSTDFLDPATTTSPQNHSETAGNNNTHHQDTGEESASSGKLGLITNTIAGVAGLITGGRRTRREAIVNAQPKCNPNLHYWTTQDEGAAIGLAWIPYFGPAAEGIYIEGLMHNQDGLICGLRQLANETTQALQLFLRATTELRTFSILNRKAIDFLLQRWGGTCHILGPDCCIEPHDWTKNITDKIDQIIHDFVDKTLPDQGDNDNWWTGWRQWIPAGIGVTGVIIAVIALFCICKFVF

T3: SUDV GP on rVSV particles (Sudan virus (SUDV), UniProt Q66814 33-676)
T3 sequence: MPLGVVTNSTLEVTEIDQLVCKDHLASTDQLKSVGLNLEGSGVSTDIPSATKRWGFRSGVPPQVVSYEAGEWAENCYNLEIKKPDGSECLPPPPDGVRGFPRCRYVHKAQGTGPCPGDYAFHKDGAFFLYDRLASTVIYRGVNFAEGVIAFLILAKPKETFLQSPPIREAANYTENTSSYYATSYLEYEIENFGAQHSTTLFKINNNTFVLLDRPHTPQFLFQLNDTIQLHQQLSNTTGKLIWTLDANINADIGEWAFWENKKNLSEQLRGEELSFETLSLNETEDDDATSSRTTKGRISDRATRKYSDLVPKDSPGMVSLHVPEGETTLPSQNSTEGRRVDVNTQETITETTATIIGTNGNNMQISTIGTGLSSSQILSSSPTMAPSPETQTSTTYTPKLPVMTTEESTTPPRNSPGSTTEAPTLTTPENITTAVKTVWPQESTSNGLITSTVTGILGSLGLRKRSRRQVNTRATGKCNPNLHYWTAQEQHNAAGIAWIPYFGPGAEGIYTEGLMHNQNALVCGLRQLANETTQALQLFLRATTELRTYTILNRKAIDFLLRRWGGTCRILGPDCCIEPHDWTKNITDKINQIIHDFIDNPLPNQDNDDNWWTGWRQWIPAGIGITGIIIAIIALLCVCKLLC

T4: TAFV GP on VSV pseudotype particles (Tai Forest virus (TAFV), UniProt Q66810 33-676)
T4 sequence: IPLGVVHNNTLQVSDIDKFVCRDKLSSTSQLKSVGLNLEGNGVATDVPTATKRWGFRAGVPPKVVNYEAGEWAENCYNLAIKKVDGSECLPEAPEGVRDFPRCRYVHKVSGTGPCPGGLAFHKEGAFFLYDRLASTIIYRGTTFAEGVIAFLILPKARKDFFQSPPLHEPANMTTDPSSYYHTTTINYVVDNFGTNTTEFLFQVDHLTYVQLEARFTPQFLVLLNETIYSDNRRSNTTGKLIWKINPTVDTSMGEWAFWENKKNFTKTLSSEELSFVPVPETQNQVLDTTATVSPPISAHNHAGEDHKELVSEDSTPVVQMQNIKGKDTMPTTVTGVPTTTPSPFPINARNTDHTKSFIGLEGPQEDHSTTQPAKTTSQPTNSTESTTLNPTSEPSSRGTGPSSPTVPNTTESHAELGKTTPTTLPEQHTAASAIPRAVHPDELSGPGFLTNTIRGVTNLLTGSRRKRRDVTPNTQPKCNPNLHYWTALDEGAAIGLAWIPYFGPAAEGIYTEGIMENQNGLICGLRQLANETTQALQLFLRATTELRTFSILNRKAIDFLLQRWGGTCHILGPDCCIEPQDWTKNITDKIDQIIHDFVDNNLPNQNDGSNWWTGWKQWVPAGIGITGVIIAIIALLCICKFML

B1: PE-87 D110A (antibody, V domains shown)
VH: QVQLVQSGVTLVQPGGSLRVSCAASGFTFSSYAMSWVRQAPGKGLEWVSAISGLGGSTYYADSVKGRFTISRDNSKNTLYLQMNSLRAEDTAVYYCAKDHRVWAAGYHFAYWGQGALVTVSS
VL: DIVLTQSPSTLSASVGDRVTITCRASQSISSWLAWYQQKPGEAPKLLISDASSLESGVPSRFSGSGSGTEFTLTISSLQPDDFATYYCQQYYSSPTFGGGTKVEIK
B2: PE-87 Y111A (antibody, V domains shown)
VH: B1 VH with A110D, Y111A
VL: B1 VL

How the values were obtained:
Test in all cases: cell-based or functional assay
[1] = target: T1, RESTV GP on rVSV particles
[2] = target: T2, EBOV GP on rVSV particles
[3] = target: BDBV GP on rVSV particles (Bundibugyo virus (BDBV))
[4] = target: T3, SUDV GP on rVSV particles
[5] = target: T4, TAFV GP on VSV pseudotype particles

| Binder | IC50 (nM), neutralization of rVSV-GP [1] | IC50 (nM), neutralization of rVSV-GP [2] | IC50 (nM), neutralization of rVSV-GP [3] | IC50 (nM), neutralization of rVSV-GP [4] | IC50 (nM), neutralization of rVSV-GP [5] |
| --- | --- | --- | --- | --- | --- |
| B1 | 0.4 nM | 2 nM | 0.9 nM | 1.5 nM | 2.1 nM |
| B2 | 0.1 nM | 0.8 nM | 0.4 nM | 0.8 nM | 1.1 nM |
